Source: PMC8111780, “NMR structural analysis of the yeast cytochrome c oxidase subunit Cox13 and its interaction with ATP” (BMC Biology, 2021)
One block for each molecule: values may come before it.

What was measured:
[1] = target: Cox13Δ-CytcO: S. cerevisiae cytochrome c oxidase lacking Cox13, with a Flag-tag on Cox6 (S. cerevisiae) (UniProt P00401)
[2] = target: wildtype S. cerevisiae cytochrome c oxidase (CytcO, Complex IV) with a 6xHis-tag on Cox13 (S. cerevisiae) (UniProt P00401)
Cox13 = target: T1, Cox13 (Saccharomyces cerevisiae, UniProt P32799); assay: 1H-15N HSQC NMR titration (chemical shift perturbation, global fit); assay type: binding
T1 construct: 15 kDa; homodimer
T1 sequence (P32799 1-129): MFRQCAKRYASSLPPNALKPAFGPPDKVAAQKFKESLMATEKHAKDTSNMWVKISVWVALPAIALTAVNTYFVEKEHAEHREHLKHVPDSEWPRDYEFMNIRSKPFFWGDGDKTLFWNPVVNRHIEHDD

Cox13Δ-CytcO = system: T2, Cox13Δ-CytcO; assay: oxygen consumption (Clark electrode), activity vs ATP; assay type: biochemical, Saccharomyces cerevisiae; conditions: tentative fit of stimulation of turnover; yeast cyt. c 50 μM, ascorbate, TMPD, 0.035% DDM, KPi; allosteric, more than one site
T2 construct: gene COX1; Complex IV lacking subunit Cox13, Flag-tag on Cox6, purified from yeast membranes in DDM; ATP site not assigned

[3] = target: the molecule itself; assay: SEC; Superdex 200 10/300; 20 mM NaPi pH 6.5, 50 mM L-Arg, 50 mM L-Glu, 1 mM DTT, 3 mM DPC; Cox13-DPC complex elutes in a single peak of apparent mass 55-60 kDa

Cox13Δ-CytcO: S. cerevisiae cytochrome c oxidase lacking Cox13, with a Flag-tag on Cox6 (S. cerevisiae), sequence (P00401 whole entry, looked up, stated change not applied): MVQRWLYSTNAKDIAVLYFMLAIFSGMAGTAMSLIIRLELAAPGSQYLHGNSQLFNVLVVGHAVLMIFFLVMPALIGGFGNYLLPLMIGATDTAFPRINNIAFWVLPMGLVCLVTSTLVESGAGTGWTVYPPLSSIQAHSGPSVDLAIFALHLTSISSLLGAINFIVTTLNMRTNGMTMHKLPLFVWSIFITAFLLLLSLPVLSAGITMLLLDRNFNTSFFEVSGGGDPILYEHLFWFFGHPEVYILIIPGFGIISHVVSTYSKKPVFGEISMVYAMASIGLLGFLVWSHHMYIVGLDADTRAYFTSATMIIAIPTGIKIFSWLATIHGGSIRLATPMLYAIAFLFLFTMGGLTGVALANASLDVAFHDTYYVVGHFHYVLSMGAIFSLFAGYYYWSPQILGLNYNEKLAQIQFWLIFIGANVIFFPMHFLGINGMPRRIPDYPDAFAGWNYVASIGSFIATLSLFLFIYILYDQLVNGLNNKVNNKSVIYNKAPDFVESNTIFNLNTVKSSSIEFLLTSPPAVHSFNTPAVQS
wildtype S. cerevisiae cytochrome c oxidase (CytcO, Complex IV) with a 6xHis-tag on Cox13 (S. cerevisiae), sequence (P00401 whole entry, looked up, one chain of several): as the sequence (P00401 whole entry, looked up, stated change not applied) above

Km^1 (low Km) for cyt. c, oxygen-consumption turnover of purified Cox13Δ-CytcO against added yeast cyt. c, no ATP [1]: 0.2 µM | Km^2 (high Km) for cyt. c, oxygen-consumption turnover of purified Cox13Δ-CytcO against added yeast cyt. c, no ATP [1]: 20 µM | single Km for cyt. c, oxygen-consumption turnover of purified Cox13Δ-CytcO against added yeast cyt. c, with 5 mM ATP [1]: 5.8 µM | Km^1 (low Km) for cyt. c, oxygen-consumption turnover of purified CytcO against added yeast cyt. c, no ATP [2]: 1.3 µM | Km^2 (high Km) for cyt. c, oxygen-consumption turnover of purified CytcO against added yeast cyt. c, no ATP [2]: 20 µM | single Km for cyt. c, oxygen-consumption turnover of purified CytcO against added yeast cyt. c, with 5 mM ATP [2]: 8.6 µM
Molecule: yeast cytochrome c (from UniProt P00044 1-109) (natural protein)

Molecule: Nc1ncnc2c1ncn2[C@@H]1O[C@H](COP(=O)(O)OP(=O)(O)O)[C@@H](O)[C@H]1O [ADP]
Kd (Cox13): 17 ± 2 mM

Molecule: Nc1ncnc2c1ncn2[C@@H]1O[C@H](COP(=O)(O)OP(=O)(O)OP(=O)(O)O)[C@@H](O)[C@H]1O [ATP]
Kd (Cox13Δ-CytcO): ATP binds less tight (with tentative Kd in the mM range | Kd (Cox13): 15 ± 2 mM

B1: Cox13 (cytochrome c oxidase subunit Cox13) from S. cerevisiae, refolded in DPC micelles (natural protein)
chain: ASSLPPNALKPAFGPPDKVAAQKFKESLMATEKHAKDTSNMWVKISVWVALPAIALTAVNTYFVEKEHAEHREHLKHVPDSEWPRDYEFMNIRSKPFFWGDGDKTLFWNPVVNRHIEHDD
notes: Cox13, cytochrome c oxidase subunit of S. cerevisiae; the gene was cloned into pET-28a; predicted mass 15 kDa; residues assigned up to I125; Isotope-labelled (15N and/or 13C) or unlabelled, depending on the experiment; also called Cox13-DPC complex; CoxVIa in mammals (homolog)
stoichiometry N [3]: 2
